Test [1] relates to cultured neurons. The experiment in a line: oxygen-glucose deprivation (OGD), in vitro model of cerebral ischemia. It is filed as cell-based. Conditions: pre-incubation with peptide; OGD 2 hr; viability tested 24 hr later. On the procedure: In subsequent experiments we used oxygen-glucose deprivation (OGD) as an in vitro model of cerebral ischemia to evaluate the role of TAT-STEP peptide in neuroprotection following an ischemic insult. Cultured neurons were submerged in glucose free buffer in a hypoxic chamber (oxygen-glucose deprivation or OGD) for 2 hr in the presence or absence of the peptide and cell viability was tested by Hoechsy DNA staining 24 hr later.

Test [2] has as its system striatum. The test is described as follows: animal model of glutamate toxicity, stereotactic injection into the striatum. It is filed as in vivo. To be noted: injected stereotactically into the striatum prior to glutamate.
In test [3] the test system is cultured neurons. The experiment in a line: cell culture model of glutamate toxicity (Hoechst DNA staining). In kind it is cell-based. Conditions: transduction prior to or immediately after glutamate (100 μM, 30 min); staining 24 hr later. The text has this: Using a cell culture model of glutamate toxicity we first investigated the functional significance of STEP's activation following excitotoxic NMDA receptor stimulation. […] As described in Poddar et al., 2010, using a substrate-trapping mutant we established that p38 MAPK is a substrate of STEP and the KIM domain of STEP is involved in STEP-p38 interaction. NR2B-NMDAR mediated activation of STEP promotes cell survival by down-regulating p38 MAPK signaling pathway. However sustained NMDAR stimulation results in degradation of active STEP leading to secondary activation of p38 MAPK that triggers cell death pathways. Based on these findings we generated a constitutively active form of a STEP peptide that can bind irreversibly to p38 MAPK. It was rendered cell permeable by fusion to the protein transduction domain of the human immunodeficiency virus-type I, TAT.

The test system of test [4] is male Wistar rats. The experiment in a line: middle cerebral artery occlusion (MCAO) acute ischemic stroke model. In kind it is in vivo, rat. Conditions: intravenous, reperfusion 24 hr, vs saline, p<0.01. On the procedure: FIG. 13 is a quantitative analysis of the infarct volume. Infarct volumes are expressed as a percentage of the contralateral (control) hemisphere and the data are mean +/− SEM (p<0.01).
FIG. 15 is a quantitative analysis of the infarct volume. Infarct volumes are expressed as a percentage of the contralateral (control) hemisphere and the data are mean +/− SEM (p<0.01).
Using an animal model of cerebral ischemia (middle cerebral artery occlusion for 90 min to generate embolic stroke followed by reperfusion for 24 hr), we evaluated whether degradation of active STEP contributes to neuronal cell death and subsequent brain damage and if the modified STEP peptide can mitigate ischemic brain damage. At first we examined the temporal profile of STEP's activation and subsequent degradation following cerebral ischemia and reperfusion and also evaluated its correlation with p38 MAPK activation. The findings show a rapid but transient increase in phosphorylation of p38 MAPK within 15 min of ischemic insult. This was followed by a time-dependent decrease in p38 phosphorylation from 30 min, which returned to basal levels by 90 min. […] As a consequence, active STEP limits the duration of activation of p38 MAPK. Progressive down regulation of active STEP through degradation is evident from ˜6 hours after reperfusion resulting in secondary activation of p38 MAPK. […]

The values that follow come from US10570381B2, “STEP-derived peptide for brain injury treatment” (STC.UNM, priority 2010, dated 2020).

B1: TAT-STEP peptide: constitutively active STEP-derived peptide fused to HIV-1 TAT protein transduction domain, myc-tagged; exact mutation set not stated here (protein)
chain: MALYGRKKRRQRRRGEEKVEDDFLDLDAVPETPVFDCVMDIKPETDPASLTVKSMGLQERRGANVSLTLDMCEPGCNEEGFGYLVEPREESAHEYLLSASRVLRAEELHEKALDPFLLQAE
modifications: Mouse
For the molecule B1, the “OGD-induced cell death (Hoechst DNA staining)” value in test [1] is recorded as “significant reduction in OGD-induced cell death”. Besides, in test [2], the “glutamate-induced excitotoxic cell death in vivo” value is “could attenuate glutamate-induced excitotoxic cell death in vivo”. Further, in test [3], the “neuronal cell death as assessed by Hoechst DNA staining” value is “blocked neuronal cell death”.

B2: TAT-STEP peptide of SEQ ID. No. 11: cell-permeable TAT-STEP peptide given intravenously in MCAO; figure legends call the treatment TAT-STEP-myc (protein)
chain: MALYGRKKRRQRRRGEEKVEDDFLDLDAVPETPVFDCVMDIKPETDPASLTVKSMGLQERRGANVSLTLDMCEPGCNEEGFGYLVEPREESAHEYLLSASRVLRAEELHEKALDPFLLQAE
modifications: myc tag; Mouse
Regarding B2, the “protection against ischemic brain injury (infarct volume, TTC staining)” value in test [4] (1.5 hr after onset of stroke (MCAO 90 min)) and in test [4] (immediately before MCAO 90 min) was “significant protection against ischemic brain injury” throughout.
